Numbering of substitutions follows the chain as printed. In names and notes the source's numbering stands. Each block holds one binder with its values, some of them ahead of it.
Biological target: T1, 14-3-3 protein, Q5ZKC9
T1 chain: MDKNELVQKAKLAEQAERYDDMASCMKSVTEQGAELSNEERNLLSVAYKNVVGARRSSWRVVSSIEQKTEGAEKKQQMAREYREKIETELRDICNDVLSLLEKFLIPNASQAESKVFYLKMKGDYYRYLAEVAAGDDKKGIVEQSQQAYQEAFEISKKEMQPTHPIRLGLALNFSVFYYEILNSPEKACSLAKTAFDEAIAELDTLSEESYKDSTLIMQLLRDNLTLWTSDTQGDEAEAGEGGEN
Test: co-immunoprecipitation (IP FOXO1, WB 14-3-3), band quantification
Conditions: chain shown with the change; chicken granulosa cells, with 740-Y-P; n = 3; parent: est. 3.7; read off a plot

response: 3.7
B1: chicken forkhead box O1 (FOXO1) wild-type, A0A8V0XGP1 S311A (protein)
chain: MAEAPQLVDIDPDFEPLPRPRSCTWPLPRPEFNPPSSATSSPAPSCGGQPDGAAAAGAAVAVAASGALSADFISNLCLVEESEDFALPPAAAAPPESAACRCGDFSAPEAGCRLHPPGPPPVPPVPPAVAALSPGPVAGQPRKSSSSRRNAWGNLSYADLITKAIESSPEKRLTLSQIYEWMVKSVPYFKDKGDSNSSAGWKNSIRHNLSLHSKFIRVQNEGTGKSSWWMLNPEGGKSGKSPRRRAASMDNNSKFAKSRGRAAKKKASLQSGQEGNGDSPGSQFSKWPASPSSHSNDDFDNWSTFRPRTSANASTISGRLSPILPEQDDLGDGDVHSMVYPSSATKMTSTLPSLSEMSSSENMENLLDNLNLLSPNTSMTVSTQSSSAALMQQTPGYSFASSTTSICSPNPDYRKFTYAQASMNSLPQIPMQTLQDSKSSYGSMSQFNCPAGLLKELLTSDSPPHNDILASVDTGVSQAGGRALGQGVLMVTNSVMPTYGNQPPHNKMMNPNARPHQGHNQPTPAVNGRALSHTVNPMSHTSCLNRLSTVKTSLQVPMSHQMQMNAMNPYAPVNSCNGYGRVGIVSLHQEKLPSDLDDMLIERLDCDMESIIRNDLMDGETLDFNFDSVLPNQSFQHSVKTTTHSWVSG

response: 2.7
B2: chicken forkhead box O1 (FOXO1) wild-type, A0A8V0XGP1 S248A (protein)
chain: B1 chain with S248A, A311S

Reference: article PMC12691273
